The results in this text go back to patent US20210070882A1 (Hoffmann-La Roche, published 2021).

Experiment [1] has as its target T1, human CD19 (human, UniProt P15391 20-556).
T1 sequence (looked up): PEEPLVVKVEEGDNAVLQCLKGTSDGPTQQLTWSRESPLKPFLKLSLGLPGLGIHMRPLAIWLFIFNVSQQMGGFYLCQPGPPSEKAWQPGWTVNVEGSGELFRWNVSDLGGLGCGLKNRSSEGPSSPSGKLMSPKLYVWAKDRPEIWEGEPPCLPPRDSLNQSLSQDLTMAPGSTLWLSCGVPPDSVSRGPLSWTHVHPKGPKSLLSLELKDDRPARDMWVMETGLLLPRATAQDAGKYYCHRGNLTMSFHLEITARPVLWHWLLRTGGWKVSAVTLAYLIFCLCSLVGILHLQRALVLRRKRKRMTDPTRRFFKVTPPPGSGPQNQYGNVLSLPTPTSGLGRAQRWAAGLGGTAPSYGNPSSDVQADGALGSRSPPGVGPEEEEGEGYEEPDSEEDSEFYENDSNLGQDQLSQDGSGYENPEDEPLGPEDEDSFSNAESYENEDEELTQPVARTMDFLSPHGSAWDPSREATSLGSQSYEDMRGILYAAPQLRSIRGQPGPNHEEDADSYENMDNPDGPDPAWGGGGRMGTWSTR
In words: cell-based or functional assay.

In experiment [2] the target is T1, human CD19. In words: cell-based or functional assay. The source holds these as a separate data set.
Experiment [3] concerns the target T1, human CD19. In words: cell-based or functional assay. The source holds these as a separate data set.
Experiment [4] deals with T1, human CD19. Briefly: flow cytometry on CD19-expressing Raji cells. As for the experimental part:
(§1) The binding of CD19 IgGs and CD19 TCBs to human CD19- and CD3-expressing target cells was tested using CD19-expressing Burkitt's lymphoma cells (Raji) and CD3-expressing immortalized T lymphocyte line (Jurkat). Briefly, cells were harvested, counted, checked for viability and resuspended at 2×10⁶ cells/ml in FACS buffer (100 μl PBS 0.1% BSA). 100 μl of cell suspension (containing 0.2×10⁶ cells) were incubated in round-bottom 96-well plate for 30 min at 4° C. with increasing concentrations of the CD19 IgGs and CD19 TCBs (10 pM-200 nM), washed twice with cold PBS 0.1% BSA, re-incubated for further 30 min at 4° C. with the PE-conjugated AffiniPure F(ab′)2 Fragment goat anti-human IgG Fcg Fragment Specific secondary antibody (Jackson Immuno Research Lab PE #109-116-170), washed twice with cold PBS 0.1% BSA and immediately analyzed by FACS using a FACS Cantoll (Software FACS Diva) by gating live, DAPI-negative, cells.
On the technique in general: In flow cytometry, cells or beads pass a laser one at a time.

Experiment [5] deals with T1, human CD19. In words: cell-based or functional assay. This is another data set of the same source.
Experiment [6] concerns the target T1, human CD19. Briefly: cell-based or functional assay. This is another data set of the same source.
Experiment [7] concerns the target T1, human CD19. In words: cell-based or functional assay. This is another data set of the same source.
For experiment [8], the target named is T1, human CD19. In words: cell-based or functional assay. The source holds these as a separate data set.
Experiment [9] has as its target T1, human CD19. Briefly: cell-based or functional assay. The source holds these as a separate data set.
For experiment [10], the target named is T1, human CD19. Briefly: flow cytometry on Nalm-6 cells and normal human B cells. As for the experimental part:
The binding of different CD19 TCB antibody formats (based on 8B8 clone) was assessed on human CD19-expressing target cells (Nalm-6 and normal human B cells) and human CD3-expressing target cells (CD4, CD8 T cells and Jurkat cells). The following CD19 TCB antibody formats were tested: molecule B as shown in FIG. 2B (named in this example “CD19 TCB_2+1_no charges_inverted”) and molecule A as shown in FIG. 2A (named in this example “CD19 TCB_2+1_charges CD19_inverted”). […] Briefly, cells were harvested, counted, checked for viability and resuspended at 1.5×10⁶ cells/ml in FACS buffer (100 μl PBS 0.1% BSA).

The target of experiment [11] is T1, human CD19. Briefly: flow cytometry on CD19-expressing Raji cells. As for the experimental part:
as §1
The source holds these as a separate data set.

Substitutions are numbered along the chain they refer to. Values joined by “and” are separate entries in the source; they are usually repeats but may differ in a detail not shown here. Equal values may be shown once. Read-outs that look alike come from different tables or passages of the source.

B1: Molecule B: 2+1 IgG CrossFab, inverted, without charge modifications (CH1/CL exchange in CD3 binder, parental murine CD19 binder 8B8) (bispecific antibody)
chain 1: EVQLQQSGPELVKPGASVKMACKASGYTFTDYIMHWVKQKTGQGLEWIGYINPYNDGSKYTEKFNGKATLTSDKSSITAYMELSSLTSEDSAVYYCARGTYYYGSALFDYWGQGTTLTVSSASTKGPSVFPLAPSSKSTSGGTAALGCLVKDYFPEPVTVSWNSGALTSGVHTFPAVLQSSGLYSLSSVVTVPSSSLGTQTYICNVNHKPSNTKVDKKVEPKSCDKTHTCPPCPAPEAAGGPSVFLFPPKPKDTLMISRTPEVTCVVVDVSHEDPEVKFNWYVDGVEVHNAKTKPREEQYNSTYRVVSVLTVLHQDWLNGKEYKCKVSNKALGAPIEKTISKAKGQPREPQVCTLPPSRDELTKNQVSLSCAVKGFYPSDIAVEWESNGQPENNYKTTPPVLDSDGSFFLVSKLTVDKSRWQQGNVFSCSVMHEALHNHYTQKSLSLSP
chain 2: not shown
chain 3: QAVVTQEPSLTVSPGGTVTLTCGSSTGAVTTSNYANWVQEKPGQAFRGLIGGTNKRAPGTPARFSGSLLGGKAALTLSGAQPEDEAEYYCALWYSNLWVFGGGTKLTVLSSASTKGPSVFPLAPSSKSTSGGTAALGCLVKDYFPEPVTVSWNSGALTSGVHTFPAVLQSSGLYSLSSVVTVPSSSLGTQTYICNVNHKPSNTKVDKKVEPKSC
chain 4: DAVMTQTPLSLPVSLGDQASISCRSSQSLENSNGNTYLNWYLQKPGQSPQLLIYRVSKRFSGVLDRFSGSGSGTDFTLKISRVEAEDLGVYFCLQLTHVPYTFGGGTKLEIKRTVAAPSVFIFPPSDEQLKSGTASVVCLLNNFYPREAKVQWKVDNALQSGNSQESVTEQDSKDSTYSLSSTLTLSKADYEKHKVYACEVTHQGLSSPVTKSFNRGEC
notes: also called CD19 TCB_8B8; CD19 TCB_8 B8
Usually EC50 stands for the concentration that produces a half-maximal response. B1: in the experiment with human CD19 [1], the “T cell activation EC50 upon Z-138 lysis, CD25/CD4” value came to 2.4 pM; the “T cell activation EC50 upon Z-138 lysis, CD25/CD8” value was 2.4 pM; the “T cell activation EC50 upon Z-138 lysis, CD69/CD4” value came out at 1.8 pM; the “T cell activation EC50 upon Z-138 lysis, CD69/CD8” value amounted to 2.7 pM. Also, in the experiment with human CD19 [2], the “Tumor cell lysis Z-138 cells (21 h), EC50” value is 0.8 ng/mL and the “Tumor cell lysis Z-138 cells (21 h), EC50 (pM)” value turned out to be 4.1 pM. In the experiment with human CD19 [3], the “Tumor cell lysis Z-138 cells (21 h), EC50” value is 0.62 ng/mL and the “Tumor cell lysis Z-138 cells (21 h), EC50 (pM)” value came to 3.2 pM. The EC50 with human CD19 [4] is 4.1 nM and 0.795 µg/mL. In the experiment with human CD19 [5], the “Tumor cell lysis Z-138 cells (21 h), EC50” value stood at 0.62 ng/mL and the “Tumor cell lysis Z-138 cells (21 h), EC50 (pM)” value was 3.16 pM. In the experiment with human CD19 [6], the “Tumor lysis EC50 (pM), Nalm-6” value was found to be 1.7 pM and the “Tumor lysis EC50 (pM), SUDHL-4” value was found to be 0.8 pM. Besides, in the experiment with human CD19 [7], the “T cell activation EC50, CD25/CD4, Nalm-6” value stood at 3.3 pM; the “T cell activation EC50, CD25/CD4, SUDHL-4” value was 3.9 pM; the “T cell activation EC50, CD25/CD8, Nalm-6” value was determined as 0.7 pM; the “T cell activation EC50, CD25/CD8, SUDHL-4” value turned out to be 2.1 pM. For the same molecule, in the experiment with human CD19 [7], the “T cell activation EC50, CD69/CD4, Nalm-6” value was 0.9 pM; the “T cell activation EC50, CD69/CD4, SUDHL-4” value was 2 pM; the “T cell activation EC50, CD69/CD8, Nalm-6” value is 0.8 pM; the “T cell activation EC50, CD69/CD8, SUDHL-4” value was 2.7 pM. In the experiment with human CD19 [8], the “T cell activation EC50 upon lysis of Z-138 cells, CD25/CD4” value worked out at 3.22 pM; the “T cell activation EC50 upon lysis of Z-138 cells, CD25/CD8” value is 1.86 pM; the “T cell activation EC50 upon lysis of Z-138 cells, CD69/CD4” value turned out to be 1.01 pM; the “T cell activation EC50 upon lysis of Z-138 cells, CD69/CD8” value stood at 0.83 pM. In the experiment with human CD19 [8], the “T cell activation EC50 upon lysis of Z-138 cells, CD107/CD4” value was found to be 1.68 pM and the “T cell activation EC50 upon lysis of Z-138 cells, CD107/CD8” value amounted to 1.32 pM. For the same molecule, in the experiment with human CD19 [9], the “T cell activation EC50 upon lysis of Z-138 cells, CD25/CD4” value turned out to be 2.77 pM; the “T cell activation EC50 upon lysis of Z-138 cells, CD25/CD8” value came out at 1.7 pM; the “T cell activation EC50 upon lysis of Z-138 cells, CD69/CD4” value is ~0.81 pM; the “T cell activation EC50 upon lysis of Z-138 cells, CD69/CD8” value is 0.82 pM. In the experiment with human CD19 [9], the “T cell activation EC50 upon lysis of Z-138 cells, CD107/CD4” value amounted to 1.37 pM and the “T cell activation EC50 upon lysis of Z-138 cells, CD107/CD8” value was 1.22 pM.

B2: DP47 TCB (untargeted TCB having an identical structure as molecule B but with the DP47 binder instead of a CD19 binder) (bispecific antibody)
heavy 1: not shown
heavy 2: not shown
light 1: B1 chain 3
light 2: not shown
notes: Negative control; also called untargeted TCB control; copies: 1 + 1 + 1 + 2
For B2, in the experiment with human CD19 [10], the binding result is recorded as “no binding”.

B3: Molecule D: 2+1 IgG CrossFab, inverted, without charge modifications (CH1/CL exchange in CD3 binder, murine CD19 binder 10C1) (bispecific antibody)
chain 1: B1 chain 3
chain 2: EVQLQQSGPELVKPGASVKMSCKASGYTFTSYVMHWVKQKPGQGLEWIGYINPYNDGTKFNEKFKGKATLTSDKSSSTAYMELSSLTSEDSAVYYCTRGVYYYGSSQGDYWGQGTTLTVSSASTKGPSVFPLAPSSKSTSGGTAALGCLVKDYFPEPVTVSWNSGALTSGVHTFPAVLQSSGLYSLSSVVTVPSSSLGTQTYICNVNHKPSNTKVDKKVEPKSCDKTHTCPPCPAPEAAGGPSVFLFPPKPKDTLMISRTPEVTCVVVDVSHEDPEVKFNWYVDGVEVHNAKTKPREEQYNSTYRVVSVLTVLHQDWLNGKEYKCKVSNKALGAPIEKTISKAKGQPREPQVCTLPPSRDELTKNQVSLSCAVKGFYPSDIAVEWESNGQPENNYKTTPPVLDSDGSFFLVSKLTVDKSRWQQGNVFSCSVMHEALHNHYTQKSLSLSP
chain 3: not shown
chain 4: B1 chain 4 with V56I, K58N, L64P, S68N, L96V, Y101W
notes: Same chain layout as molecule B (CD19 VL-CL light chain twice); also called CD19 TCB_10C1; CD19 TCB_10 C1
As for B3, in the experiment with human CD19 [1], the “T cell activation EC50 upon Z-138 lysis, CD25/CD4” value amounted to 6.7 pM; the “T cell activation EC50 upon Z-138 lysis, CD25/CD8” value worked out at 5.9 pM; the “T cell activation EC50 upon Z-138 lysis, CD69/CD4” value stood at 4.5 pM; the “T cell activation EC50 upon Z-138 lysis, CD69/CD8” value was 5.7 pM. In the experiment with human CD19 [2], the “Tumor cell lysis Z-138 cells (21 h), EC50” value came to 2.2 ng/mL and the “Tumor cell lysis Z-138 cells (21 h), EC50 (pM)” value came to 11.1 pM. Moreover, the EC50 with human CD19 [4] is 7.7 nM and 1.49 µg/mL. Also, in the experiment with human CD19 [6], the “Tumor lysis EC50 (pM), Nalm-6” value was 2.1 pM and the “Tumor lysis EC50 (pM), SUDHL-4” value worked out at 3.4 pM. Besides, in the experiment with human CD19 [7], the “T cell activation EC50, CD25/CD4, Nalm-6” value was found to be 11.8 pM; the “T cell activation EC50, CD25/CD4, SUDHL-4” value worked out at 9.7 pM; the “T cell activation EC50, CD25/CD8, Nalm-6” value amounted to 3 pM; the “T cell activation EC50, CD25/CD8, SUDHL-4” value is 7.2 pM. In addition, in the experiment with human CD19 [7], the “T cell activation EC50, CD69/CD4, Nalm-6” value stood at 5.6 pM; the “T cell activation EC50, CD69/CD4, SUDHL-4” value turned out to be 5.2 pM; the “T cell activation EC50, CD69/CD8, Nalm-6” value amounted to 3.8 pM; the “T cell activation EC50, CD69/CD8, SUDHL-4” value is 10.5 pM. In the experiment with human CD19 [11], this molecule came in with an EC50 of 3000 to 8000 pM.

B4: CD19_IgG_10C1 (antibody, V domains shown)
VH: EVQLQQSGPELVKPGASVKMSCKASGYTFTSYVMHWVKQKPGQGLEWIGYINPYNDGTKFNEKFKGKATLTSDKSSSTAYMELSSLTSEDSAVYYCTRGVYYYGSSQGDYWGQGTTLTVSS
VL: DAVMTQTPLSLPVSLGDQASISCRSSQSLENSNGNTYLNWYLQKPGQSPQLLIYRISNRFSGVPDRFNGSGSGTDFTLKISRVEAEDLGVYFCLQVTHVPWTFGGGTKLEIK
notes: also called CD19 IgG (clone 10C1); 10C1 as IgG
Turning to B4, in the experiment with human CD19 [4], the EC50 was 5.2 nM and 0.763 µg/mL.
